Measured values: paper PMC11773488

What was measured:
[1] = target: Venus-tagged mini-Gsi (mGsi); assay: BRET; conditions: HEK293 cells; WKYMVm at x = -5 (highest concentration), 10 min; parent: est. 0.076; read off a plot
[2] = target: β-arrestin 2 fused to Venus fluorescent protein (UniProt P32121); assay: BRET; conditions: HEK293 cells; WKYMVm at x = -5 (highest concentration), 10 min; parent: est. 0.064; read off a plot
[3] = target: N-terminal FLAG-tagged human formyl-peptide receptor 2 fused C-terminally to Renilla luciferase (FPR2-Rluc8) (human) (UniProt P25090); assay: FRET or BRET; BRET as a1, in ΔQ-GRK cells co-transfected with GRK2; WKYMVm 10 min
[4] = target: N-terminal FLAG-tagged human formyl-peptide receptor 2 fused C-terminally to Renilla luciferase (FPR2-Rluc8) (human) (UniProt P25090); assay: FRET or BRET; BRET as a1, in ΔQ-GRK cells co-transfected with GRK3; WKYMVm 10 min
[5] = target: N-terminal FLAG-tagged human formyl-peptide receptor 2 fused C-terminally to Renilla luciferase (FPR2-Rluc8) (human) (UniProt P25090); assay: FRET or BRET; BRET as a1, in ΔQ-GRK cells co-transfected with GRK5; WKYMVm 10 min
[6] = target: N-terminal FLAG-tagged human formyl-peptide receptor 2 fused C-terminally to Renilla luciferase (FPR2-Rluc8) (human) (UniProt P25090); assay: FRET or BRET; BRET as a1, in ΔQ-GRK cells co-transfected with GRK6; WKYMVm 10 min
[7] = target: N-terminal FLAG-tagged human formyl-peptide receptor 2 fused C-terminally to Renilla luciferase (FPR2-Rluc8) (human) (UniProt P25090); assay: FRET or BRET; BRET as a1, in CRISPR-Cas9-edited HEK293 cells without GRK2/3 (ΔGRK2/3); WKYMVm 10 min
[8] = target: N-terminal FLAG-tagged human formyl-peptide receptor 2 fused C-terminally to Renilla luciferase (FPR2-Rluc8) (human) (UniProt P25090); assay: FRET or BRET; BRET as a1, in CRISPR-Cas9-edited HEK293 cells without GRK5/6 (ΔGRK5/6); WKYMVm 10 min
[9] = target: N-terminal FLAG-tagged human formyl-peptide receptor 2 fused C-terminally to Renilla luciferase (FPR2-Rluc8) (human) (UniProt P25090); assay: FRET or BRET; BRET as a1, FPR2-RLuc8 with Venus-β-arrestin in Control cells of the GRK-edited HEK293 panel; WKYMVm 10 min
FPR2 ΔAB-RLuc8 (human) = FPR2 ΔAB-RLuc8 (human) (UniProt P25090); assay: FRET or BRET; BRET in live HEK293 cells co-transfected with receptor-RLuc8 (donor, 400 ng) and Venus-tagged mGsi, β-arrestin 1 or β-arrestin 2 (acceptor), 4:1 acceptor:donor; 37°C, Hank's balanced salt solution, 5 μM coelenterazine H; increasing WKYMVm, read 10 min after agonist; ratio acceptor:donor minus untreated; Emax by nonlinear regression; pertussis toxin pretreatment had no effect on β-arrestin recruitment
[10] = target: FPR2 ΔABC with S326 reintroduced, RLuc8 fusion (human) (UniProt P25090); assay: as above
[11] = target: FPR2 ΔABC with S328 (printed once as S329) reintroduced, RLuc8 fusion (human) (UniProt P25090); assay: as above
[12] = target: FPR2 ΔABC with T331 reintroduced, RLuc8 fusion (human) (UniProt P25090); assay: as above
[13] = target: FPR2 ΔABC-RLuc8 (all C-terminal serine and threonine residues mutated to alanine) (human) (UniProt P25090); assay: as above
FPR2 ΔAC-RLuc8 (human) = FPR2 ΔAC-RLuc8 (human) (UniProt P25090); assay: as above
FPR2 ΔBC-RLuc8 (human) = FPR2 ΔBC-RLuc8 (human) (UniProt P25090); assay: as above
[14] = target: N-terminal FLAG-tagged human formyl-peptide receptor 2 fused C-terminally to Renilla luciferase (FPR2-Rluc8) (human) (UniProt P25090); assay: as above
FPR2 S326A-RLuc8 (human) = FPR2 S326A-RLuc8 (human) (UniProt P25090); assay: as above
FPR2 S328A-RLuc8 (human) = FPR2 S328A-RLuc8 (human) (UniProt P25090); assay: as above
FPR2 T331A-RLuc8 (human) = FPR2 T331A-RLuc8 (human) (UniProt P25090); assay: as above
[15] = target: N-terminal FLAG-tagged human formyl-peptide receptor 2 fused C-terminally to Renilla luciferase (FPR2-Rluc8) (human) (UniProt P25090); assay: as above; remark: listed apart in the source

Emax (BRET) (normalized acceptor:donor ratio) [3] | Emax (BRET) (normalized acceptor:donor ratio) [4] | Emax (BRET) (normalized acceptor:donor ratio) [5] | Emax (BRET) (normalized acceptor:donor ratio) [6] | Emax (BRET) (normalized acceptor:donor ratio) [7] | Emax (BRET) (normalized acceptor:donor ratio) [8] | Emax (BRET) (normalized acceptor:donor ratio) [9] | Substance | Emax (BRET) (normalized acceptor:donor ratio) (FPR2 ΔAB-RLuc8 (human)) | Emax (BRET) (normalized acceptor:donor ratio) [10] | Emax (BRET) (normalized acceptor:donor ratio) [11] | Emax (BRET) (normalized acceptor:donor ratio) [12] | Emax (BRET) (normalized acceptor:donor ratio) [13] | Emax (BRET) (normalized acceptor:donor ratio) (FPR2 ΔAC-RLuc8 (human)) | Emax (BRET) (normalized acceptor:donor ratio) (FPR2 ΔBC-RLuc8 (human)) | Emax (BRET) (normalized acceptor:donor ratio) [14] | Emax (BRET) (normalized acceptor:donor ratio) (FPR2 S326A-RLuc8 (human)) | Emax (BRET) (normalized acceptor:donor ratio) (FPR2 S328A-RLuc8 (human)) | Emax (BRET) (normalized acceptor:donor ratio) (FPR2 T331A-RLuc8 (human)) | Emax (BRET) (normalized acceptor:donor ratio) [15] | further results
 |  |  |  |  |  |  | N-terminal FLAG-tagged human formyl-peptide receptor 2 fused C-terminally to Renilla luciferase (FPR2-Rluc8) (from UniProt P25090) DAC (… to …; R to A of the DRC motif) |  |  |  |  |  |  |  |  |  |  |  |  | response [1]: 0 N-BRET; response [2]: 0.033 N-BRET
0.0822 | 0.0855 | 0.0884 | 0.0557 | 0.0708 | 0.0299 | 0.0931 | β-arrestin 1 fused to Venus fluorescent protein (from UniProt P49407 1-418) (natural protein) | 0.0359 | 0.00242 | -0.00162 | -0.000883 | 0.00138 | 0.0638 | 0.000955 | 0.0782 | 0.0623 | 0.0481 | 0.0667 | 0.0821 | 
0.0987 | 0.0949 | 0.0971 | 0.0583 | 0.0807 | 0.0541 | 0.098 | β-arrestin 2 fused to Venus fluorescent protein (from UniProt P32121 1-409) (natural protein) | 0.0396 | 0.0217 | 0.0111 | 0.0194 | 0.0146 | 0.0691 | 0.0015 | 0.0715 | 0.0605 | 0.0608 | 0.0611 | 0.0854 | 
